From the supplement of paper PMC7125110
± gives the standard error. For some assays here: This sample holds only a part of the variants without activity.

B1: glmS ribozyme (parent)
chain: AUAAAAGCGCCAGAACUACAGAAAUGUAGUUGACGAGGAGGAGGUUUAUCGAAUUUUCGGCGGAUGCCUCCAAA

Legend:
Details in all cases: with glucosamine-6-phosphate
glucosamine-6-phosphate [1] = variants of: B1; experiment: kcat; higher = faster cleavage; RNA array
In short: (§1)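 Barcoded ribozyme variants on sequenced MiSeq chips were transcribed in situ by E. coli RNA polymerase and followed at 37 °C through a hybridised Cy3 probe. Glucosamine-6-phosphate at 40 μM to 10 mM in HEPES/KCl/Mg(OAc)2 buffer was flowed in, and tiles were imaged over ~14 h. Signals were normalised to baseline and to non-cleaving reference variants, and per-tile medians were fit to one- or two-exponential decays to give kobs. Weighted Michaelis–Menten fits across concentrations gave kcat and KM.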

glucosamine-6-phosphate [2] = variants of: B1; experiment: self-cleavage kobs at 40 uM GlcN6P; higher = faster cleavage; RNA array
In short: as §1

glucosamine-6-phosphate [3] = variants of: B1; experiment: self-cleavage kobs at 640 uM GlcN6P; higher = faster cleavage; RNA array
In short: as §1

glucosamine-6-phosphate [4] = variants of: B1; experiment: self-cleavage kobs at 2500 uM GlcN6P; higher = faster cleavage; RNA array
In short: as §1

glucosamine-6-phosphate [5] = variants of: B1; experiment: self-cleavage kobs at 10000 uM GlcN6P; higher = faster cleavage; RNA array
In short: as §1

glucosamine-6-phosphate [6] = variants of: B1; experiment: KM; higher = weaker cofactor use; RNA array
In short: as §1

glucosamine-6-phosphate [7] = variants of: B1; experiment: self-cleavage kobs at 160 uM GlcN6P; higher = faster cleavage; RNA array
In short: as §1

Row | Variant | kcat (glucosamine-6-phosphate [1]) [s⁻¹] | self-cleavage kobs at 40 uM GlcN6P (glucosamine-6-phosphate [2]) [s⁻¹] | self-cleavage kobs at 640 uM GlcN6P (glucosamine-6-phosphate [3]) [s⁻¹] | self-cleavage kobs at 2500 uM GlcN6P (glucosamine-6-phosphate [4]) [s⁻¹] | self-cleavage kobs at 10000 uM GlcN6P (glucosamine-6-phosphate [5]) [s⁻¹] | KM (glucosamine-6-phosphate [6]) [mM] | self-cleavage kobs at 160 uM GlcN6P (glucosamine-6-phosphate [7]) [s⁻¹]
1 | A52C C67G | 1.74e-05 ± 6.9e-06 |  |  |  |  |  | 
2 | U46C U47A | 0.00433 ± 0.002 | 9.34e-05 ± 1.5e-05 | 0.000719 ± 0.00017 | 0.00311 ± 0.0008 | 0.00365 ± 0.001 |  | 
3 | U54A C70A | 0.000115 ± 1.2e-05 | 5.92e-05 ± 7.9e-06 | 0.000107 ± 1.4e-05 | 0.000122 ± 1.5e-05 |  | 0.0426 ± 0.017 | 7.42e-05 ± 1.3e-05
4 | G29U C67A U69A | 7.55e-05 ± 1.2e-05 |  | 5.78e-05 ± 2.8e-05 | 0.000106 ± 2.6e-05 | 6.88e-05 ± 1.3e-05 |  | 
5 | A12G U47G | 0.000821 ± 0.00017 |  | 0.000127 ± 1.6e-05 | 0.000266 ± 2.7e-05 | 0.000573 ± 4.8e-05 | 4.64 ± 1.6 | 1.69e-05 ± 7.8e-06
6 | U54A U65G | 0.00357 ± 0.0014 | 5.78e-05 ± 9.8e-06 | 0.000927 ± 0.00015 | 0.001 ± 0.00025 | 0.00358 ± 0.00043 |  | 0.000211 ± 3.9e-05
7 | U57G C71U | 6.07e-05 ± 3e-05 |  | 3.26e-05 ± 1.2e-05 | 1.65e-05 ± 8e-06 | 4.47e-05 ± 6.6e-06 |  | 
8 | A42U C67A | 0.00217 ± 0.00044 | 7.75e-05 ± 9.8e-06 | 0.00067 ± 9.7e-05 | 0.00183 ± 0.00029 | 0.00183 ± 0.00019 | 1.4 ± 0.46 | 0.000151 ± 3.4e-05
9 | C10A A12C U56A | 0.000168 ± 4.1e-05 |  | 7.12e-05 ± 3e-05 | 0.000306 ± 0.00011 | 0.00015 ± 2.7e-05 |  | 
10 | A12C U31A | 0.0133 ± 0.004 | 0.000142 ± 1.7e-05 | 0.00151 ± 0.00035 | 0.00434 ± 0.00085 | 0.00974 ± 0.0017 | 4.52 ± 1.7 | 0.000363 ± 7.2e-05
11 | G63A C68U | < 1e-05 | < 1e-05 |  |  |  |  | 
12 | U45G C58G | 6.11e-05 ± 9.3e-06 |  |  |  | 4.17e-05 ± 1.1e-05 | 4.73 ± 1.9 | 
13 | A15G C67A C71U | 0.000877 ± 0.00033 | 7.86e-05 ± 1.3e-05 | 0.000523 ± 0.00013 | 0.000455 ± 0.00016 | 0.00139 ± 0.00024 |  | 
14 | U47C C70G | 0.000161 ± 3.3e-05 |  | 0.000172 ± 3.5e-05 | 0.00012 ± 3e-05 | 0.000256 ± 0.0001 |  | 7.93e-05 ± 2.2e-05
15 | C16A A64G | 0.00134 ± 0.00022 | 3.87e-05 ± 8.2e-06 | 0.000277 ± 3.5e-05 | 0.000757 ± 7.7e-05 | 0.00113 ± 0.00015 | 2.06 ± 0.52 | 9.99e-05 ± 1.3e-05
16 | U30G C58U | 5.55e-05 ± 8.1e-06 |  |  |  | 4.54e-05 ± 1.6e-05 |  | 
